Assay results reported in US20240247080A1, “GLP1/GIP/NPY2 RECEPTOR TRIPLE AGONISTS” (Boehringer Ingelheim International GmbH, priority 2022, published 2024).
Changes are numbered by the printed parent chain. Blank lines part the entries; values can stand above or below the binder they belong to. Starred links: 1 amine or outer side, 2 acyl side, 3 side chain; linkers in the order of their positions; H or OH if unused. Non-standard residues stand in square brackets, D forms with d. Groups on a side chain read outwards from the residue. No end group written: not given here. *: point of attachment. C20 diacid = O=C(O)CCCCCCCCCCCCCCCCCCC(=O)*; C18 diacid = O=C(O)CCCCCCCCCCCCCCCCC(=O)*; γGlu = O=C(O)[C@H](CCC(=O)[*:2])N[*:1]; AEEA = NCCOCCOCC(=O)O; Aib = CC(C)(N)C(=O)O

Key:
Experiment in all cases: cell-based or functional assay
GLP-1 receptor = GLP-1 receptor (human (printed as hGLP1R), UniProt P43220 24-463)
GIP receptor = target: T1, GIP receptor (human (printed as hGIPR), UniProt P48546 22-466)
T1 sequence (looked up): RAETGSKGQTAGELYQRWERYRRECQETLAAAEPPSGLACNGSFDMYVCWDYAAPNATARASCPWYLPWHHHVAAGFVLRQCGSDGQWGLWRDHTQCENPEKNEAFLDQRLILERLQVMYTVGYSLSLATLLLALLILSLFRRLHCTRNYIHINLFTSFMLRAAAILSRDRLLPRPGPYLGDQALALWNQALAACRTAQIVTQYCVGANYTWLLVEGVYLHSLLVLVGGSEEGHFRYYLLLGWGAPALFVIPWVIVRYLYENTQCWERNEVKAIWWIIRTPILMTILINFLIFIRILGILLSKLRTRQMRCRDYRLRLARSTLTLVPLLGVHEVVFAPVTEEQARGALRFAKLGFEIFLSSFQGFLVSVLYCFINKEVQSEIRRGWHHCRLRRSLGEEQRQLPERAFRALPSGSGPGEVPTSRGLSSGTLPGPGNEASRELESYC

NPY2 receptor = target: T2, NPY2 receptor (human (printed as hNPY2R), UniProt P49146 1-381)
T2 sequence (looked up): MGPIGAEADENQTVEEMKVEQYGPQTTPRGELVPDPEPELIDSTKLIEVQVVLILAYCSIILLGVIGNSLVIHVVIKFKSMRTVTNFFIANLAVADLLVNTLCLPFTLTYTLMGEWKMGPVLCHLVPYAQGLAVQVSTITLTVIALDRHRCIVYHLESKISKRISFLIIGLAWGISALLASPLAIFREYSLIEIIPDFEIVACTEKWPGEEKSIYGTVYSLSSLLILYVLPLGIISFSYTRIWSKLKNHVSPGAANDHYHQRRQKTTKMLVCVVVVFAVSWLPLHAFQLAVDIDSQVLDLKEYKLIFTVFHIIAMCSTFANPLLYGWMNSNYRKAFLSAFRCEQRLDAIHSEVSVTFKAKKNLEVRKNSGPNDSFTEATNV

human GLP-1 receptor = human GLP-1 receptor (human, UniProt P43220 24-463)
human GIP receptor = target: T3, human GIP receptor (human, UniProt P48546 22-466)
T3 sequence (looked up): T1 sequence (looked up)

[1] = target: T4, human neuropeptide Y2 receptor (human, UniProt P49146 1-381)
T4 sequence (looked up): T2 sequence (looked up)

Binder: Y[Aib]EGTFTSDYSI[Aib]LEKQAE[Aib]AFVQWLIKGGPSEGASLRHYYNWLTRQRY-NH2 (not fully specified (residue 28); also: TFA salt) [Compound 174]
EC50 hGLP1R 0.5% hP (CreLuc) (GLP-1 receptor): 0.22 nM
EC50 hGLP1R 100% hP (CreLuc) (GLP-1 receptor): 7.71 nM
EC50 hGIPR 0.5% hP (CreLuc) (GIP receptor): 0.17 nM
EC50 hGIPR 100% hP (CreLuc) (GIP receptor): 1.26 nM
EC50 hNPY2R 0.5% hP (CreLuc) (NPY2 receptor): 11.5 nM
EC50 hNPY2R 100% hP (CreLuc) (NPY2 receptor): 39.2 nM

Binder: Y[Aib]EGTFTSDYSI[Aib]LEKQAQ[Aib]EFVQWLIK([Glu-Glu-Glu-Glu-Glu-Glu-C18 diacid])GGPSEGASLRHYYNWLTRQRY-NH2 (also: TFA salt) [Compound 179]
EC50 hGLP1R 0.5% hP (CreLuc) (GLP-1 receptor): 0.22 nM
EC50 hGLP1R 100% hP (CreLuc) (GLP-1 receptor): 10.5 nM
EC50 hGIPR 0.5% hP (CreLuc) (GIP receptor): 0.38 nM
EC50 hGIPR 100% hP (CreLuc) (GIP receptor): 3.34 nM
EC50 hNPY2R 0.5% hP (CreLuc) (NPY2 receptor): 18.5 nM
EC50 hNPY2R 100% hP (CreLuc) (NPY2 receptor): 111 nM

Binder: Y[Aib]EGTFTSDYSI[Aib]LEKQAQ[Aib]EFVQWLIKGGPSEGASLRHYYNWLTRQRY-NH2 (not fully specified (residue 28)) [Compound 164]
EC50 CreLuc hGLP1R 0.5% hP (human GLP-1 receptor): 0.28 nM
EC50 CreLuc hGLP1R 100% hP (human GLP-1 receptor): 6.48 nM
EC50 CreLuc hGIPR 0.5% hP (human GIP receptor): 0.25 nM
EC50 CreLuc hGIPR 100% hP (human GIP receptor): 1.26 nM
EC50 CreLuc hNPY2R 0.5% hP [1]: 24 nM
EC50 CreLuc hNPY2R 100% hP [1]: 50.1 nM

B1: Compound 176 (peptide)
peptide: YXEGTFTSDYSIXLEKQAQXEFVQWLIKGGPSEGASLRHYYNWLTRQRY
modifications: Aib at 2, 13, 20; K28 side chain carries C18DA-E-E-E-E-E (SEQ ID NO: 636); C-terminal amide
EC50 hGLP1R 0.5% hP (CreLuc) (GLP-1 receptor): 0.29 nM
EC50 hGLP1R 100% hP (CreLuc) (GLP-1 receptor): 9.56 nM
EC50 hGIPR 0.5% hP (CreLuc) (GIP receptor): 0.68 nM
EC50 hGIPR 100% hP (CreLuc) (GIP receptor): 3.37 nM
EC50 hNPY2R 0.5% hP (CreLuc) (NPY2 receptor): 30.4 nM
EC50 hNPY2R 100% hP (CreLuc) (NPY2 receptor): 197 nM

Binder: Y[Aib]EGTFTSDYSI[Aib]LEKQAQ[Aib]AFVQWLIK([AEEA-AEEA-γGlu-γGlu-Glu-γGlu-C20 diacid])GGPSEPASLRHYYNWLTRQRY-NH2 [Compound 165]
EC50 CreLuc hGLP1R 0.5% hP (human GLP-1 receptor): 0.13 nM
EC50 CreLuc hGLP1R 100% hP (human GLP-1 receptor): 4.81 nM
EC50 CreLuc hGIPR 0.5% hP (human GIP receptor): 0.33 nM
EC50 CreLuc hGIPR 100% hP (human GIP receptor): 1.88 nM
EC50 CreLuc hNPY2R 0.5% hP [1]: 8.91 nM
EC50 CreLuc hNPY2R 100% hP [1]: 36 nM

Binder: Y[Aib]EGTFTSDYSI[Aib]LEKQAQ[Aib]AFVEWLIK([AEEA-AEEA-γGlu-γGlu-γGlu-C18 diacid])GGPESGASLRHYYNWLTRQRY-NH2 [Compound 166]
EC50 CreLuc hGLP1R 0.5% hP (human GLP-1 receptor): 0.07 nM
EC50 CreLuc hGLP1R 100% hP (human GLP-1 receptor): 4.24 nM
EC50 CreLuc hGIPR 0.5% hP (human GIP receptor): 0.08 nM
EC50 CreLuc hGIPR 100% hP (human GIP receptor): 0.64 nM
EC50 CreLuc hNPY2R 0.5% hP [1]: 12.5 nM
EC50 CreLuc hNPY2R 100% hP [1]: 57.9 nM

Binder: Y[Aib]EGTFTSDYSI[Aib]LEKQAQ[Aib]AFVEWLIKGGPSSPASLRHYYNWLTRQRY-NH2 (not fully specified (residue 28); also: TFA salt) [Compound 178]
EC50 hGLP1R 0.5% hP (CreLuc) (GLP-1 receptor): 0.08 nM
EC50 hGLP1R 100% hP (CreLuc) (GLP-1 receptor): 5.51 nM
EC50 hGIPR 0.5% hP (CreLuc) (GIP receptor): 0.12 nM
EC50 hGIPR 100% hP (CreLuc) (GIP receptor): 5.86 nM
EC50 hNPY2R 0.5% hP (CreLuc) (NPY2 receptor): 13.3 nM
EC50 hNPY2R 100% hP (CreLuc) (NPY2 receptor): 115 nM

Further lines, results first:

EC50 hGLP1R 0.5% hP (CreLuc) (GLP-1 receptor): 0.16 nM
EC50 hGLP1R 100% hP (CreLuc) (GLP-1 receptor): 12.5 nM
EC50 hGIPR 0.5% hP (CreLuc) (GIP receptor): 0.28 nM
EC50 hGIPR 100% hP (CreLuc) (GIP receptor): 2.83 nM
EC50 hNPY2R 0.5% hP (CreLuc) (NPY2 receptor): 18.7 nM
EC50 hNPY2R 100% hP (CreLuc) (NPY2 receptor): 115 nM
Binder: Y[Aib]EGTFTSDYSI[Aib]LEKQAQ[Aib]AFVQWLIK([AEEA-AEEA-Glu-Glu-Glu-Glu-C18 diacid])GGPEEGASLRHYYNWLTRQRY-NH2 (also: TFA salt) [Compound 177]

EC50 CreLuc hGLP1R 0.5% hP (human GLP-1 receptor): 0.1 nM
EC50 CreLuc hGLP1R 100% hP (human GLP-1 receptor): 4.72 nM
EC50 CreLuc hGIPR 0.5% hP (human GIP receptor): 0.26 nM
EC50 CreLuc hGIPR 100% hP (human GIP receptor): 0.87 nM
EC50 CreLuc hNPY2R 0.5% hP [1]: 21.3 nM
EC50 CreLuc hNPY2R 100% hP [1]: 55.2 nM
Binder: Y[Aib]EGTFTSDYSI[Aib]LEKQAQ[Aib]AFVEWLIK([AEEA-AEEA-γGlu-γGlu-γGlu-γGlu-C18 diacid])GGPESGASLRHYYNWLTRQRY-NH2 [Compound 163]

EC50 CreLuc hGLP1R 0.5% hP (human GLP-1 receptor): 0.04 nM
EC50 CreLuc hGLP1R 100% hP (human GLP-1 receptor): 0.82 nM
EC50 CreLuc hGIPR 0.5% hP (human GIP receptor): 0.14 nM
EC50 CreLuc hGIPR 100% hP (human GIP receptor): 0.49 nM
EC50 CreLuc hNPY2R 0.5% hP [1]: 10.5 nM
EC50 CreLuc hNPY2R 100% hP [1]: 26.5 nM
B2: Compound 167 (peptide)
peptide: B1 peptide with E21A, E33S
modifications: Aib at 2, 13, 20; K28 side chain: C18DA-gGlu-gGlu-gGlu-gGlu-gGlu-OEG-OEG; C-terminal NH2

EC50 CreLuc hGLP1R 0.5% hP (human GLP-1 receptor): 0.11 nM
EC50 CreLuc hGLP1R 100% hP (human GLP-1 receptor): 3.59 nM
EC50 CreLuc hGIPR 0.5% hP (human GIP receptor): 0.2 nM
EC50 CreLuc hGIPR 100% hP (human GIP receptor): 1.5 nM
EC50 CreLuc hNPY2R 0.5% hP [1]: 6.05 nM
EC50 CreLuc hNPY2R 100% hP [1]: 36.1 nM
B3: Compound 168 (peptide)
peptide: B1 peptide with E21A, Q24E, S32R, E33S
modifications: Aib at 2, 13, 20; K28 side chain: C20DA-gGlu-gGlu-gGlu-gGlu-gGlu-gGlu-eLys; C-terminal NH2

EC50 CreLuc hGLP1R 0.5% hP (human GLP-1 receptor): 0.2 nM
EC50 CreLuc hGLP1R 100% hP (human GLP-1 receptor): 8.2 nM
EC50 CreLuc hGIPR 0.5% hP (human GIP receptor): 0.25 nM
EC50 CreLuc hGIPR 100% hP (human GIP receptor): 1.61 nM
EC50 CreLuc hNPY2R 0.5% hP [1]: 25.8 nM
EC50 CreLuc hNPY2R 100% hP [1]: 92.6 nM
B4: Compound 162 (peptide)
peptide: B1 peptide with E21A, S32E
modifications: Aib at 2, 13, 20; K28 side chain: C18DA-gGlu-gGlu-gGlu-gGlu-gGlu-AHX; C-terminal NH2

EC50 hGLP1R 0.5% hP (CreLuc) (GLP-1 receptor): 0.11 nM
EC50 hGLP1R 100% hP (CreLuc) (GLP-1 receptor): 3.07 nM
EC50 hGIPR 0.5% hP (CreLuc) (GIP receptor): 0.27 nM
EC50 hGIPR 100% hP (CreLuc) (GIP receptor): 0.94 nM
EC50 hNPY2R 0.5% hP (CreLuc) (NPY2 receptor): 12.4 nM
EC50 hNPY2R 100% hP (CreLuc) (NPY2 receptor): 24.9 nM
Binder: Y[Aib]EGTFTSDYSI[Aib]LEKQAQ[Aib]AFVQWLIK([AEEA-AEEA-γGlu-γGlu-γGlu-γGlu-C18 diacid])GGPSEPASLRHYYNWLTRQRY-NH2 (also: TFA salt) [Compound 173]

EC50 hGLP1R 0.5% hP (CreLuc) (GLP-1 receptor): 0.1 nM
EC50 hGLP1R 100% hP (CreLuc) (GLP-1 receptor): 5.3 nM
EC50 hGIPR 0.5% hP (CreLuc) (GIP receptor): 0.29 nM
EC50 hGIPR 100% hP (CreLuc) (GIP receptor): 1.53 nM
EC50 hNPY2R 0.5% hP (CreLuc) (NPY2 receptor): 10.5 nM
EC50 hNPY2R 100% hP (CreLuc) (NPY2 receptor): 48.7 nM
Binder: Y[Aib]EGTFTSDYSI[Aib]LEKQAQ[Aib]AFVEWLIK([AEEA-AEEA-γGlu-γGlu-γGlu-γGlu-C20 diacid])GGPSSPASLRHYYNWLTRQRY-NH2 (also: TFA salt) [Compound 175]
